B1: CPOX (parent)
chain: HAPTIHFNYRYFEVEEADGNKQWW
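Note: lentivirally expressed fusions sorted by FACS into six bins by GFP to DsRed ratio, PSI derived from sequencing read proportions per bin multiplied by bin number.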

Variants of: B1
Experiment: protein stability index of a GFP-peptide fusion (GPS, HEK-293T) (PSI 1-6); higher = more stable
Conditions: c terminus: a fixed tail appended
HAATIHFNYRYFEVEEADGNKQWW [P3A] showed a protein stability index of 1.97. With HAWTIHFNYRYFEVEEADGNKQWW [P3W] the protein stability index was 1.17. HAYTIHFNYRYFEVEEADGNKQWW [P3Y] gave a protein stability index of 2.39. HAGTIHFNYRYFEVEEADGNKQWW [P3G] gave a protein stability index of 2.85. Variant HAITIHFNYRYFEVEEADGNKQWW [P3I] has a protein stability index of 2.92. For HACTIHFNYRYFEVEEADGNKQWW [P3C], the protein stability index was 1.62. Variant HALTIHFNYRYFEVEEADGNKQWW [P3L] has a protein stability index of 2.49. For HAHTIHFNYRYFEVEEADGNKQWW [P3H], the protein stability index was 2.2. HAETIHFNYRYFEVEEADGNKQWW [P3E] showed a protein stability index of 1.99. For HAQTIHFNYRYFEVEEADGNKQWW [P3Q], the protein stability index was 1.65. Variant HATTIHFNYRYFEVEEADGNKQWW [P3T] has a protein stability index of 2.38. HASTIHFNYRYFEVEEADGNKQWW [P3S] gave a protein stability index of 1.99. In the case of HAFTIHFNYRYFEVEEADGNKQWW [P3F], the protein stability index is reported as 2.6. HAVTIHFNYRYFEVEEADGNKQWW [P3V] gave a protein stability index of 1.8. With HAKTIHFNYRYFEVEEADGNKQWW [P3K] the protein stability index was 1.93. HARTIHFNYRYFEVEEADGNKQWW [P3R] showed a protein stability index of 2.69. For HADTIHFNYRYFEVEEADGNKQWW [P3D], the protein stability index was 2.67. HANTIHFNYRYFEVEEADGNKQWW [P3N] gave a protein stability index of 2.09. Variant HAMTIHFNYRYFEVEEADGNKQWW [P3M] has a protein stability index of 1.97. AAPTIHFNYRYFEVEEADGNKQWW [H1A] showed a protein stability index of 2.46. In the case of EAPTIHFNYRYFEVEEADGNKQWW [H1E], the protein stability index is reported as 2.42. For CAPTIHFNYRYFEVEEADGNKQWW [H1C], the protein stability index was 2.15. Variant MAPTIHFNYRYFEVEEADGNKQWW [H1M] has a protein stability index of 2.15. Variant IAPTIHFNYRYFEVEEADGNKQWW [H1I] has a protein stability index of 2.05. PAPTIHFNYRYFEVEEADGNKQWW [H1P] gave a protein stability index of 2.62. WAPTIHFNYRYFEVEEADGNKQWW [H1W] showed a protein stability index of 2.62. QAPTIHFNYRYFEVEEADGNKQWW [H1Q] showed a protein stability index of 2.96. RAPTIHFNYRYFEVEEADGNKQWW [H1R] showed a protein stability index of 3.24. SAPTIHFNYRYFEVEEADGNKQWW [H1S] showed a protein stability index of 2.89. DAPTIHFNYRYFEVEEADGNKQWW [H1D] showed a protein stability index of 1.84. GAPTIHFNYRYFEVEEADGNKQWW [H1G] showed a protein stability index of 3.62. Work on NAPTIHFNYRYFEVEEADGNKQWW [H1N] yielded a protein stability index of 2.54. VAPTIHFNYRYFEVEEADGNKQWW [H1V] showed a protein stability index of 2.69. TAPTIHFNYRYFEVEEADGNKQWW [H1T] gave a protein stability index of 2.91. With KAPTIHFNYRYFEVEEADGNKQWW [H1K] the protein stability index was 2.37. In the case of LAPTIHFNYRYFEVEEADGNKQWW [H1L], the protein stability index is reported as 1.92. In the case of HAPTIKFNYRYFEVEEADGNKQWW [H6K], the protein stability index is reported as 2.36. For HAPTIGFNYRYFEVEEADGNKQWW [H6G], the protein stability index was 2.77. Work on HAPTIIFNYRYFEVEEADGNKQWW [H6I] yielded a protein stability index of 2.34. For HAPTIAFNYRYFEVEEADGNKQWW [H6A], the protein stability index was 2.19. In the case of HAPTIFFNYRYFEVEEADGNKQWW [H6F], the protein stability index is reported as 1.52. In the case of HAPTIEFNYRYFEVEEADGNKQWW [H6E], the protein stability index is reported as 2.66. HAPTICFNYRYFEVEEADGNKQWW [H6C] gave a protein stability index of 1.9. In the case of HAPTIDFNYRYFEVEEADGNKQWW [H6D], the protein stability index is reported as 2.92. HAPTKHFNYRYFEVEEADGNKQWW [I5K] gave a protein stability index of 2.29. With HAPTVHFNYRYFEVEEADGNKQWW [I5V] the protein stability index was 2.43. In the case of HAPTSHFNYRYFEVEEADGNKQWW [I5S], the protein stability index is reported as 2.65. Variant HAPTAHFNYRYFEVEEADGNKQWW [I5A] has a protein stability index of 2.69. Variant HAPTCHFNYRYFEVEEADGNKQWW [I5C] has a protein stability index of 2.4. HAPTGHFNYRYFEVEEADGNKQWW [I5G] showed a protein stability index of 2.25. Variant HAPTFHFNYRYFEVEEADGNKQWW [I5F] has a protein stability index of 2.44. For HAPTPHFNYRYFEVEEADGNKQWW [I5P], the protein stability index was 2.78. HAPTDHFNYRYFEVEEADGNKQWW [I5D] gave a protein stability index of 3.41. HAPTTHFNYRYFEVEEADGNKQWW [I5T] gave a protein stability index of 2.78. For HAPTWHFNYRYFEVEEADGNKQWW [I5W], the protein stability index was 2.47. HAPTYHFNYRYFEVEEADGNKQWW [I5Y] showed a protein stability index of 1.97. For HAPTLHFNYRYFEVEEADGNKQWW [I5L], the protein stability index was 2.14. Work on HAPTHHFNYRYFEVEEADGNKQWW [I5H] yielded a protein stability index of 2.82. HAPTRHFNYRYFEVEEADGNKQWW [I5R] gave a protein stability index of 2.64. HAPTMHFNYRYFEVEEADGNKQWW [I5M] showed a protein stability index of 3.15. Variant HAPTNHFNYRYFEVEEADGNKQWW [I5N] has a protein stability index of 2.9. In the case of HAPTEHFNYRYFEVEEADGNKQWW [I5E], the protein stability index is reported as 3.55. Variant HAPTQHFNYRYFEVEEADGNKQWW [I5Q] has a protein stability index of 2.7. With HPPTIHFNYRYFEVEEADGNKQWW [A2P] the protein stability index was 2.34. Work on HYPTIHFNYRYFEVEEADGNKQWW [A2Y] yielded a protein stability index of 2.33. Variant HIPTIHFNYRYFEVEEADGNKQWW [A2I] has a protein stability index of 1.73. HNPTIHFNYRYFEVEEADGNKQWW [A2N] gave a protein stability index of 2.46. In the case of HKPTIHFNYRYFEVEEADGNKQWW [A2K], the protein stability index is reported as 2.38. HVPTIHFNYRYFEVEEADGNKQWW [A2V] gave a protein stability index of 2.85. In the case of HCPTIHFNYRYFEVEEADGNKQWW [A2C], the protein stability index is reported as 1.99. For HEPTIHFNYRYFEVEEADGNKQWW [A2E], the protein stability index was 3.45. For HGPTIHFNYRYFEVEEADGNKQWW [A2G], the protein stability index was 2.43. Variant HTPTIHFNYRYFEVEEADGNKQWW [A2T] has a protein stability index of 2.5. In the case of HQPTIHFNYRYFEVEEADGNKQWW [A2Q], the protein stability index is reported as 3.31. HMPTIHFNYRYFEVEEADGNKQWW [A2M] showed a protein stability index of 2.16. In the case of HLPTIHFNYRYFEVEEADGNKQWW [A2L], the protein stability index is reported as 2.11. Work on HWPTIHFNYRYFEVEEADGNKQWW [A2W] yielded a protein stability index of 2.02. For HSPTIHFNYRYFEVEEADGNKQWW [A2S], the protein stability index was 2.78. For HHPTIHFNYRYFEVEEADGNKQWW [A2H], the protein stability index was 2.44. With HFPTIHFNYRYFEVEEADGNKQWW [A2F] the protein stability index was 2.26. Variant HRPTIHFNYRYFEVEEADGNKQWW [A2R] has a protein stability index of 2.73. HDPTIHFNYRYFEVEEADGNKQWW [A2D] gave a protein stability index of 2.94. HAPHIHFNYRYFEVEEADGNKQWW [T4H] showed a protein stability index of 2.62. With HAPEIHFNYRYFEVEEADGNKQWW [T4E] the protein stability index was 2.29. With HAPWIHFNYRYFEVEEADGNKQWW [T4W] the protein stability index was 2.15. Work on HAPAIHFNYRYFEVEEADGNKQWW [T4A] yielded a protein stability index of 2.38. Variant HAPFIHFNYRYFEVEEADGNKQWW [T4F] has a protein stability index of 2.12. HAPVIHFNYRYFEVEEADGNKQWW [T4V] gave a protein stability index of 2.45. Variant HAPLIHFNYRYFEVEEADGNKQWW [T4L] has a protein stability index of 2.31. Variant HAPRIHFNYRYFEVEEADGNKQWW [T4R] has a protein stability index of 1.8. In the case of HAPMIHFNYRYFEVEEADGNKQWW [T4M], the protein stability index is reported as 1.97. HAPNIHFNYRYFEVEEADGNKQWW [T4N] gave a protein stability index of 2.63. For HAPDIHFNYRYFEVEEADGNKQWW [T4D], the protein stability index was 2.96. With HAPPIHFNYRYFEVEEADGNKQWW [T4P] the protein stability index was 2.7.

Source: the supplement of paper PMC10567573
